Assay results from the DeepSol protein solubility set.

Assay: soluble on expression in E. coli; label from the status in PepcDB or PDB records

Row | Sequence | soluble on expression in E. coli
1 | MSLFAAQYIGNKSFNVVEGHAIAPQAGEVRLDVGYVGICGTDMHIYHGVMDQRVSIPQTIGHEISGVVAQIGEGVEGFTVGEKVVVRPLDWCGECPTCEAGLTHICQNLKFMGIDTPGAFQSSWTVKARTLHKLPAGVDLKQGALVEPLSVACHDVRRSRLKAGEKAVILGGGPIGQLVAAVAKSVGAEVLVSEPNDSRREFADELGVKSVNPMDTDLAAYVDQWTGTKGADVVFEVSGVLPAIQSMTQIAGRRGRIVMVAIHSTAPPIDLFQFFWKELELLGARVYEAADFDWAIELIASGQIDLKPFISSVSPLADIGSAFANMDGNPQGMKALVECNAEEGHHHHHH | soluble
2 | MSLFHREDFSKALLKKALQPGMRVMDIGCGSGELTRLAADIVGKEGDVVGIDINEQLLWQARHDNGYANVSYQNADLAALSSFETKSFDAIIGRRVLMYQKDPKKVIESLTPLLKPNGFYVFQESDAMCLELAKPSFVNMNKIQSLIWQTVEKEGGHIHIGSQLEQLMLEAGLIVDHFVSENVIQTSQTGTDLSWLLNIMKERIQKYSDLQGLEDVNLQKELEENNDHFIRDCQFGIISHRVDEGHHHHHH | soluble
3 | MSLFKEERTMTNYTVDTLNLGKFITESGEVIDNLRLRYEHVGYHGQPLVVVCHALTGNHLTYGTDDYPGWWREIIDGGYIPIHDYQFLTFDVIGSPFGSSSPLNDPHFPKKLTLRDIVRANERGIQALGYDKINILIGGSLGGMQAMELLYNQQFEVDKAIILAATSRTSSYSRAFNEIARQAIHLGGKEGLSIARQLGFLTYRSSKSYDERFTPDEVVAYQQHQGNKFKEHFDLNCYLTLLDVLDSHNIDRGRTDVTHIFKNLETKVLTMGFIDDLLYPDDQVRALGERFKYHRHFFVPDNVGHDGFLLNFSTWAPNLYHFLNLKHFKRKEGHHHHHH | soluble
4 | MSLFPNYEFSFRPIARKFVRSLVTSHGIWEVREAIILRLTDTTGKVGWGEIAPISWFGSETLAQALDFCRQLPEEITQEIIFSIPDDLPACQFGFESALEAMGSGEDVTITNAQFSALLPAGEAALHQWQSLWDEGYRTFKWKIAVGEVAQELRIFDSLTQILPASAKLRLDANGGLSYPEAHLWLQACDNLPVEVEFIEQPLPVEQFSQMLELSEAYPTAIALDESVANLKQLAACYAQGWRDVFVIKPAIAGSPSRLRQFCQQHEIDAVFSSVFETAIARKASLQLAAELSRDNRAVGFGVNHLFHQEAENWLQSLWNNPEGHHHHHH | soluble
5 | MSLFPSSEVEAKRTTLNLELESNTDRLLQEKDDLLPQSVTNSSDEGTPFAQVEGASDDNTAEQDSDKPGASVADADTKPVDPEWKTITVASGDTLSTVFTKAGLSTSAMHDMLTSSKDAKRFTHLKVGQEVKLKLDPKGELQALRVKQSELETIGLDKTDKGYSFKREKAQIDLHTAYAHGRITSSLFVAGRNAGLPYNLVTSLSNIFGYDIDFALDLREGDEFDVIYEQHKVNGKQVATGNILAARFVNRGKTYTAVRYTNKQGNTSYYRADGSSMRKAFIRTPVDFARISSRFSLGRRHPILNKIRAHKGVDYAAPIGTPIKATGDGKILEAGRKGGYGNAVVIQHGQRYRTIYGHMSRFAKGIRAGTSVKQGQIIGYVGMTGLATGPHLHYEFQINGRHVDPLSAKLPMADPLGGADRKRFMAQTQPMIARMDQEKKTLLALNKQREGHHHHHH | soluble
6 | MSLFRFMKYKLFIDFEFNILDDNKNKPKEYNGAELISIGGILVDNEFNTIDNYYSLVKPKYNKILSNKCKNLTKLNQLDINNAPNLLYVMDDFYKWFCKFDDVTIYNWGDFDITGLLTSFRVYKYTGKCLELFNMMIDIQPFISQHITYNNRILSKQISLLNMKKIFSVEGDIKHNSLSDAVDLMNVCKCFFFNSPKNIDILEELYNKLPALKTEGHHHHHH | soluble
7 | MSLFTGYGNCYRLDALELAAEHGHTMQHWTFKTIEHFRSILANPEFPCLFGRKAVNGETCHILFARAEQLADDIAQGLANYVRTVAPIAPKQRIGSPLVVFLETAAGSSLAEQQALAWKVLRGVHARDPHPWPQGIPTDPDDTGWSFCYAGMPLFINMNFPGHQQMKSRNLGQHITFVINPRENFDEVANANTESGKRIRERIRERVHHYNDGVVPDTLGFFGDTDNYEWKQYQLQEAGSLNPSRCPFHAHAAHQPTPDILIENEGHHHHHH | not soluble
8 | MSLFVEALKRQNPALISAALSLWQQGKIAPDSWVIDVDQILENGKRLIETARLYGIELYLMTKQFGRNPWLAEKLLALGYSGIVAVDYKEARVMRRAGLPVAHQGHLVQIPCHQVADAVEQGTDVITVFTLDKAREVSAAAVKAGRIQSVLLKVYSDDDFLYPGQESGFALKVLPEIVAEIQNLPGLHLAGLTHFPCLLWDEAVGKVLPTPNLHTLIQARDQLAKSGIALEQLNAPSATSCTSLPLLAQYGVTHAEPGHALTGTIPANQQGDQPERIAMLWLSEISHHFRGDSYCYGGGYYRRGHAQHALVFTPENQKITETNLKTVDDSSIDYTLPLAGEFPVSSAVVLCFRTQIFVTRSDVVLVSGIHRGEPEIVGRYDSLGNSLGAEGHHHHHH | soluble
9 | MSLGAIVEVITIKNYSLKSENYEAEIDIPKIRGLKDKNLEQRLNSSFMEDGKRLYHQFQERMEKIQSSKNKGYKSLSLSYSVKNNSKKFLSIEMTKNEIEASSYVSKVHYTIDKKRQIVLTLPMLFKDDKYIKVISDNIKEQMREQMKKDSTKSYFIDQKKDLPVEDFKTINKYQDFYFNKNEDLVICFDEYEVAPGYMGAVEFVIPYKVIKDEGHHHHHH | soluble
10 | MSLGCDSILSIDIGTTRIKAGLVDCNTLEITGRGSVSTPVSYPRKGWSEQDPEELWQAIVRASSAALEGFEASRVSGVIFSTYLAGVVLLDRDNYELTPIITWLDERAHGLPRELFSGVLKVSGYNLLHLVDLLRLTGGAPSKTGKDPLSKMVWLRENKPDLFTKAHTIGTLKTWVLAKTAEARLVSPDDAHLTWLADTRGGRAVWSPRLARRYGIPLEKLPGIAGPTDVAGGLVSSAARDLGLPQGIPVIVGAGDIASSAVGSGALAAGEYHIYVGTSSWIGVHSTRRLLDVRHYIGSLLSAKPGEYLVIGEQEIAGGMIDWILDVTGMDYRAVEDIHSIPPGSEGLIATPWLYGERTPIDDPHAKGVLVGLTLRHTKKHLVRAAVEGVALNIAWAMEHMTRLAGKPKLVRGVGGGFRLRTLAKVIASALNATIETVSQPEMAGVRGAGALAAAALKGSSIESEAGKIPVSWRAEADSNASKAYKDLLQIYQEIYSRLKSVFRRLSEGHHHHHH | not soluble
11 | MSLGEDSEGSGTSGISPGGNSVSEEVLKHRSMVEKYAKESDILDYVPILLAIIQVESGGTMEDVMQSSESAGLPPNSLSTEASIKQGCIYFASLVKSSKELGCDQDSIIQAYNYGGGYLNYVAKNGKKHSFTLAESFSKEKSGGQKVDYPNPIAIKENGGWRYNYGNMFYCLLVKQYLTTTQFDDKTVQGIFDEAFKYEGTAYVFGGSSPATGFDCSGLTQWCYAKVGLKLPRVAQDQYDVMTHIDLKDAKPGDLIFFHSTYDAGTYVTHVGIYAGENRMFHAGNPVGWTNLTESYWQQHLIGAGRYNEGHHHHHH | soluble
12 | MSLGEKGQAEIIKSLTEQLDQVQSLDDDRIIRRYMEMINATLRTNYYQLDEHKQNKPWLSLKMKPSEIPEIPAPVPAFEIFVYAPDIEGVHLRGGKVARGGLRWSDRQEDFRTEILGLVKAQQVKNTVIVPVGAKGGFVCKKQYLYTTRDEIFAEGQRCYKRFIRALLDVTDNIIEGQVVPPKNVVRHDEDDPYLVVAADKGTATFSDLANSVSAEYQFWLGDAFASGGSNGYDHKAMGITAKGGWESVKRHFREMGIDCQTTDFTAIGIGDMAGDVFGNGMLLSKHIRLLAAFNHIHIFIDPTPDSASSWEERNRLFNLPRSSWEDYNPKLISKGGGVFSRKAKAITLTPEMQKMLNTKKTTLAPNELIKMILKMEVDLLWNGGIGTYVKSSIETHTDVGDRANDGLRVDGREVNAKIIGEGGNLGMTQRGRIEFALKGGRVNTDFVDNVGGVDCSDNEVNIKIFLNGLVANGDLTLKQRNQILESMKDEVGSIVIEDAYGQSESISVTEAQGEGHHHHHH | not soluble
13 | MSLGFHEFSSPYDWSRIASYKRTAKAAFGGMVDLSVGSPVDPVPDSVRKALAVSSNDPNAYGYPVTAGTADLRDAIHEWFAAARNVDLRAIGADAVPTVGSKEGVALMASLLHFGEGDVVVQPKVSYPTYEIGTQLAGAQTLKVDDVADADSWKDVPGVKAVWVNSPCNPTGEVLSAEQMAGIVRAARAIGAVVLSDECYALMQWEDDVAEADADTLASTPCALRADVCGGSAEGVLVLYSLSKQSNMAGYRTALIAGDQSLIGPMAAYRKQIGQIIPGPVQAAMAAGLRDFDAVKTQHSRYQERLGMLVSALRAYGYCTDMPQGALYVWVKAKSGDCWEDLRQLAEIGIVASPGEFYGAPEYLRFSATASDAAIASAAERLAREGHHHHHH | soluble
14 | MSLGGTMVFRPVDVPGGAVFADQKITLGGGSPDRAFIENAHPDYLSGSFAEKNAWRYYIAKYELTAAQYAAIAGPCPDASKMDLWLPKVGITPGEATVAAESYSAWLFANARKSLPGDGKAPGFVRLPTEAEWEYAARGGAKVGPSDFDARHPPMDGPESGAIWYDGPESADKELQLVGLLAANPLGLHDMLGNAAELVQDLFRLNRVGRPHGRAGAFVKRGGDYRTPLAEIHSGLRQEFDLFDAKGLRREATTGTRFVLAAAALPSRDRLEALRQGWTALTEQSHSPLAEQQSDPRAELKTLSEFTSQLDFPEKAEVKRRLLNLAGVIDANIASRNEERDRAAREMLRVAVFAAGQLPTALDNAERCGKLMALNAAQYKERCDRVQADSKFDSQYYLDHVTRMLAEFPVPILEGQLGTLGSDLHAQGMLDAEGRVDHVFSDLKTLQAKGATAHKGILGGWKGREGHHHHHH | not soluble
15 | MSLGKGVRDPGSDGSLRRKELAMIKVEDMMTRHPHTLLRTHTLNDAKHLMEALDIRHVPIVDANKKLLGIVSQRDLLAAQESSLQRSAQGDSLAFETPLFEVMHTDVTSVAPQAGLKESAIYMQKHKIGCLPVVAKDVLVGIITDSDFVTIAINLLELQEESEPDELDEEQEGGSHHHHHH | soluble
16 | MSLGKLIVPILKSPSHLGHSSSRVNRLYNEDKYSANLLQVKESQIFNFSIFDGHGGDQCSTYLAENLSLALEDLDQLVENDNDRQELFKKYAKNVGGYWKRWYKHRDNTVANWEKERIKLKNFLSDDLATRVPLAFLNADYNFFSKEQKSGSTCTSAMIETIYSKPGTFQPFFENYYFNRHTISKLSIGHLGDTRAIVADKNGLAHTLTTDHHPLNPIEAKRLRKYAANFFMTDSFGEERFVALANTRAFGDVDYKEVGVTAEPDFNQYIIGDLDAIKQFLTPDEIEKYTIGGLGGDESFLILCSDGVTNIMTDQEIADIVLTHVNLKGQTVATPQYCAEQVIKFVEFVGGDDNATCLVIRLNGWGNEGHHHHHH | not soluble
